The text below walks through data of patent US20140301945A1 (NEURIMMUNE, published 2014).

Some results are limits rather than exact numbers.

Experiment [1] has as its target T1, recombinant human SOD1 (biomol, Hamburg) (human, UniProt P00441 2-154, limits assumed).
T1 construct: Bought protein; also called recombinant human superoxide dismutase 1; Recombinant SOD1
Put plainly: direct ELISA, recombinant human SOD1 coated at 30 µg/ml.
Procedure: (§1) Binding was determined using either a goat anti-mouse IgG antibody (Jackson immunoResearch, Newmarket, UK) or a donkey anti-human IgGγ (Jackson immunoResearch, Newmarket, UK) antibody conjugated with HRP, followed by measurement of HRP activity in a standard colorimetric assay. The EC₅₀ values were estimated by a non-linear regression using GraphPad Prism (San Diego, USA) software.

The target in experiment [2] is T1, recombinant human SOD1 (biomol, Hamburg). Nature of the experiment: direct ELISA, recombinant human SOD1 coated at 0.1 µg/ml. (ELISA stands for enzyme-linked immunosorbent assay.)
Procedure: as §1
Experiment [3] addresses T2, wild type SOD1 from human erythrocytes (physiological dimers) (human, UniProt P00441 2-154).
T2 construct: Purified from human erythrocytes (Sigma-Aldrich); homodimer; control incubated in Tris acetate buffer without oxidants; also called Native SOD1; native human SOD1 dimers
Nature of the experiment: direct ELISA, native human SOD1 dimers coated at 20 µg/ml.
Procedure: (§2) Primary antibodies were diluted to the indicated concentrations and incubated 1 h at RT. Binding was determined using either a donkey anti-human IgG Fcγ-specific antibody conjugated with HRP or a goat anti-mouse IgG (H+L)-specific antibody conjugated with HRP, followed by measurement of HRP activity in a standard colorimetric assay.
(§3) The EC₅₀ of the different human-derived SOD1-specific antibodies for native human SOD1 dimers, denatured/oxidized human SOD1 and recombinant SOD1 was determined by direct ELISA with coating of the different SOD1 species at 20 μg/ml concentration.

Experiment [4] concerns the target T3, in vitro denatured human SOD1 (human, UniProt P00441 2-154).
T3 construct: also called Denatured SOD1; unfolded SOD1
Nature of the experiment: direct ELISA, denatured human SOD1 coated at 20 µg/ml.
Procedure: as §2, §3

Experiment [5] concerns the target T4, in vitro misfolded/aggregated human SOD1 (metal-catalyzed oxidation) (human, UniProt P00441 2-154, oxidized by metal-catalyzed oxidation (4 mM ascorbic acid, 0.2 mM CuCl2, 48 hours at 37 C); residues not stated).
T4 construct: also called Oxidized SOD1; in vitro aggregated human SOD1 dimers
Put plainly: direct ELISA, in vitro aggregated human SOD1 coated at 34 µg/ml.

Experiment [6] has as its target T1, recombinant human SOD1 (biomol, Hamburg). Nature of the experiment: direct ELISA, recombinant human SOD1 coated at 0.1 µg/ml. This is another data set of the same source.
For experiment [7] the target is unchanged. Put plainly: direct ELISA, recombinant human SOD1 coated at 3.3 µg/ml.
Procedure: Binding was determined using a donkey anti-human IgGγ antibody (Jackson immunoResearch, Newmarket, UK) conjugated with HRP, followed by measurement of HRP activity in a standard colorimetric assay.
The EC₅₀ values were estimated by a non-linear regression using GraphPad Prism (San Diego, USA) software.
The target is the same in experiment [8]. Put plainly: direct ELISA, recombinant human SOD1 coated at 1 µg/ml.
Procedure: as §1
Experiment [9] addresses T4, in vitro misfolded/aggregated human …. Put plainly: direct ELISA, oxidized human SOD1 coated at 20 µg/ml.
Procedure: as §2, §3
In experiment [10] the target is T1, recombinant human SOD1 (biomol, Hamburg). Nature of the experiment: direct ELISA, recombinant human SOD1 coated at 10 µg/ml.
Experiment [11] shares this target. Put plainly: direct ELISA, recombinant human SOD1 coated at 1 µg/ml. The source holds these as a separate data set.
Procedure: as §1
Experiment [12] has the same target. Put plainly: direct ELISA, recombinant human SOD1 coated at 10 µg/ml. This is another data set of the same source.
Procedure: as §1
Experiment [13] addresses T2, wild type SOD1 from human erythrocytes …. Nature of the experiment: direct ELISA, physiological human SOD1 dimers coated at 34 µg/ml.
Procedure: Non-specific binding sites were blocked for 1 hr at RT with PBS/0.1% Tween®-20 containing 2% BSA (Sigma-Aldrich, Buchs, Switzerland). […] Binding was determined using either a goat anti-mouse IgG antibody (Jackson immunoResearch, Newmarket, UK) or a donkey anti-human IgGγ antibody (Jackson immunoResearch, Newmarket, UK) conjugated with HRP, followed by measurement of HRP activity in a standard colorimetric assay. EC₅₀ values were estimated by a non-linear regression using GraphPad Prism software (San Diego, USA).
The target of experiment [14] is T1, recombinant human SOD1 (biomol, Hamburg). Put plainly: direct ELISA, recombinant SOD1 coated at 20 µg/ml.
Procedure: as §2, §3
The target of the next experiment is T5, bovine serum albumin (bovine, UniProt P02769 25-607).
T5 construct: Control antigen in ELISA; also called BSA
Nature of the experiment: direct ELISA, BSA coated at 3.3 µg/ml.

T1 sequence (P00441 2-154 limits assumed): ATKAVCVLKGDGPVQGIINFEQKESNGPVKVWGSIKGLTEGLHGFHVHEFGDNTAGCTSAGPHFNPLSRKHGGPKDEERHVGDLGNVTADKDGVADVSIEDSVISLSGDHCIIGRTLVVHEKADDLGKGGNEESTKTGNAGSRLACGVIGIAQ
T2 sequence (P00441 2-154 limits assumed): as above
T4 sequence (P00441 2-154 limits assumed): as above
T3 sequence (P00441 2-154 limits assumed): as above
T5 sequence (P02769 25-607 limits assumed): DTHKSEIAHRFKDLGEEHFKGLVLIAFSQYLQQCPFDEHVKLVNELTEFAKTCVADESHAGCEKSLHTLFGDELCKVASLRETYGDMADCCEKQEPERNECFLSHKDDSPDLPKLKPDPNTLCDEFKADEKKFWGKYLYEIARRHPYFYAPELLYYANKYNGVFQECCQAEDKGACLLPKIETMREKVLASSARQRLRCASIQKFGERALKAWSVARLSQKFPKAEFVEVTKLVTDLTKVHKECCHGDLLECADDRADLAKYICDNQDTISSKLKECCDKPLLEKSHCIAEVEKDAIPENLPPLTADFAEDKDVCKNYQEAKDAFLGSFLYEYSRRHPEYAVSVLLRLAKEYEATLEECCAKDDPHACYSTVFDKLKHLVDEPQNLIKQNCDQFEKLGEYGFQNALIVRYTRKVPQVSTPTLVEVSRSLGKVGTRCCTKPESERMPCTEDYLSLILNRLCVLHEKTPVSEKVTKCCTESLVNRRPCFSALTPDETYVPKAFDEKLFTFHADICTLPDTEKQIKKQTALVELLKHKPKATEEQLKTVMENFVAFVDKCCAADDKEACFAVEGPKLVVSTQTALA
Source text for bovine serum albumin: Non-specific binding sites were blocked for 2 hr at RT with PBS containing 2% BSA (Sigma-Aldrich, Buchs, Switzerland) and 0.5% Tween20.

B1: NI-204.10A8 (antibody, human IgG1, V domains shown)
VH: EVQLVESGAEVKEPGSSVRVSCKTSGGSFNRHVITWVRQAPGQGLEWMGEIIPFFGTPKYAPKFQGRVTIIADASTSTFFLDVKSLTSEDTALYFCWIVVVSVVQRREDFWGQGILVTVSS
VL: EIVLTQSPSSLSASVGDTVTITCRSSQNISNYLSWFQHKPGKAPRILVYAASTLQTGVPSRFSGRGSGTIFTLSITSLQSEDYATYYCQQNDKIPRTFGQGTKVEIK
In the case of B1, the EC50 in [1] was 2.2 nM; in [2] it was 95.9 nM; in [3], > 100 nM; in [4], > 100 nM; in experiment [5], 29.5 nM; in [6], 96 nM. Further, the EC50 in [7] was 2.7 nM; in [8], 19 nM; in experiment [9], > 100 nM; in experiment [10], 2 nM; in experiment [11] it was 18.7 nM; in [12], 2.1 nM. For the same molecule, the EC50 in experiment [13] stood at 19.1 nM; in [14], 1 nM. For the same molecule, the binding result with bovine serum albumin is listed as “no binding”.

What is called EC50 is the concentration at which the effect is half-maximal.
